Measured values published in patent US6492106B1, “Mammalian proteins that bind to FKBP12 in a rapamycin-dependent fashion” (The Johns Hopkins University, priority 1994, dated 2002).
Entries after “also recorded” stand apart in the source; their conditions may differ.

Legend:
[1] = biological target: RAFT1 (Rapamycin And FKBP12 Target 1), 245 kDa protein (rat) (UniProt P42346); assay: DSS crosslinking in heparin column eluate with 1 uM rapamycin plus 1 uM FK506 (small-molecule competitor)
[2] = biological target: RAFT2 (Rapamycin And FKBP12 Target 2), 35 kDa protein; assay: as above
[3] = biological target: FKBP12 / RAFT1 (245 kDa) and RAFT2 (35 kDa) (Rattus norvegicus, UniProt P42346+Q62658); assay: Crosslinking assay: 32P-FKBP12 with heparin column eluate of rat brain cytosol

Molecule: 32P-radiolabeled FKBP12 probe (recombinant rat FKBP12 with two consensus PKA sites added at the N-terminus, cleaved from GST with thrombin) (from UniProt Q62658 1-108)
- reduction of crosslinked band intensity [1]: 50%
- reduction of crosslinked band intensity [2]: 50%

Molecule: C=CC[C@@H]1/C=C(\C)C[C@H](C)C[C@H](OC)[C@H]2O[C@@](O)(C(=O)C(=O)N3CCCC[C@H]3C(=O)O[C@H](/C(C)=C/[C@@H]3CC[C@@H](O)[C@H](OC)C3)[C@H](C)[C@@H](O)CC1=O)[C@H](C)C[C@@H]2OC [FK506, reference compound]
- reduction of the intensities of the crosslinked bands ([3]; equal concentrations (1 μM) of rapamycin and FK506): approximately 50%

B1: unlabeled FKBP12: immunophilin receptor protein for FK506 and rapamycin, used unlabeled in excess (1 μM) as competitor (protein)
chain: GVQVETISSGDGRTFPKRGQTCVVHYTGMLEDGKKFDSSRDRNKPFKFTLGKQEVIRGWEEGVAQMSVGQRAKLIISPDYAYGATGHPGIIPPHATLVFDVELLKLE
- antagonism of rapamycin-induced crosslinking of 32P-FKBP12 to the target proteins ([3]; competitor at 1 μM, all rapamycin concentrations tested): prevent the rapamycin-dependent association; also recorded: completely suppressed the appearance of the crosslinked bands
